These results are taken from paper PMC9352680, “A comprehensive thermodynamic model for RNA binding by the Saccharomyces cerevisiae Pumilio protein PUF4”.

Usually Kd stands for the equilibrium constant for the complex coming apart.

Positions count from the first letter of the chain named. Numbers in names are those of the source.

The labels stand for the following.
T1: PUF4 RNA-binding domain (Saccharomyces cerevisiae, UniProt P25339 537-888)
T1 sequence: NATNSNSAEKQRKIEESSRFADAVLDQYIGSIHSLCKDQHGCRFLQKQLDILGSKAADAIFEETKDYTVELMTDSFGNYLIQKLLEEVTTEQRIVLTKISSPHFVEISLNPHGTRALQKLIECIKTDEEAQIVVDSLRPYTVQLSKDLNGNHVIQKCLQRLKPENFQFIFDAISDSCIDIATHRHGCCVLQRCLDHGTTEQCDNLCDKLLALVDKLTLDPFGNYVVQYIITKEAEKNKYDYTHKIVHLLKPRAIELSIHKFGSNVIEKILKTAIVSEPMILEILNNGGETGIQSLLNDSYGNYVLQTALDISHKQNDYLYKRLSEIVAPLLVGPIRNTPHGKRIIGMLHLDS

B1: Ib_S4_P5E.1_K5.1_C5.1_H5.1_[T3C]_[A4C]_A5.1_F5.1_T5.1 (ssRNA)
RNA: UUUGACAACUGAUCGUUCUUUCUUGCCUUAUUAUUCUUUCUCGAUCAGUUGUCUUU
B2: Ib_S4_P5E.1_K5.1_C5.1_H5.1_[T1C]_A5.1_[T6C]_F5.1_T5.1 (ssRNA)
RNA: B1 RNA with U24C, C26U, C27A, U29C
B3: Ib_S4_P5E.1_K5.1_C5.1_H5.1_[T3C]_[A4T]_A5.1_F5.1_T5.1 (ssRNA)
RNA: B1 RNA with C27U
B4: Ie_S4_P4E.1_K4.1_C4.1_H4.1_[+3C]_A4.1_F4.1_T4.1 (ssRNA)
RNA: B1 RNA with C26U, U28A
B5: Ic_S4_P5E.1_K5.1_C5.1_H5.1_A5.1_[T6G]_[A7C]_F5.1_T5.1 (ssRNA)
RNA: B1 RNA with C26U, C27A, U29G, A30C
B6: Ib_S4_P5E.1_K5.1_C5.1_H5.1_A5.1_[T5A]_[A7T]_F5.1_T5.1 (ssRNA)
RNA: B1 RNA with C26U, C27A, U28A, A30U
B7: Ib_S4_P5E.1_K5.1_C5.1_H5.1_[G2A]_A5.1_[T5G]_F5.1_T5.1 (ssRNA)
RNA: B1 RNA with G25A, C26U, C27A, U28G
B8: Ib_S4_P5E.1_K5.1_C5.1_H5.1_[T1C]_A5.1_[A7G]_F5.1_T5.1 (ssRNA)
RNA: B1 RNA with U24C, C26U, C27A, A30G
B9: Ib_S4_P5E.1_K5.1_C5.1_H5.1_A5.1_[T5C]_[T6A]_F5.1_T5.1 (ssRNA)
RNA: B1 RNA with C26U, C27A, U28C, U29A
B10: Ib_S4_P5E.1_K5.1_C5.1_H5.1_[A4C]_A5.1_[A7G]_F5.1_T5.1 (ssRNA)
RNA: B1 RNA with C26U, A30G
B11: Ib_S4_P5E.1_K5.1_C5.1_H5.1_[T1A]_A5.1_[T6C]_F5.1_T5.1 (ssRNA)
RNA: B1 RNA with U24A, C26U, C27A, U29C
B12: Ib_S4_P5E.1_K5.1_C5.1_H5.1_[G2T]_A5.1_[A7C]_F5.1_T5.1 (ssRNA)
RNA: B1 RNA with G25U, C26U, C27A, A30C
B13: Ib_S4_P5E.1_K5.1_C5.1_H5.1_[G2T]_A5.1_[T5A]_F5.1_T5.1 (ssRNA)
RNA: B1 RNA with G25U, C26U, C27A, U28A
B14: Ib_S4_P5E.1_K5.1_C5.1_H5.1_[A4C]_A5.1_[A7C]_F5.1_T5.1 (ssRNA)
RNA: B1 RNA with C26U, A30C
B15: Ib_S4_P5E.1_K5.1_C5.1_H5.1_[T3C]_A5.1_[T5A]_F5.1_T5.1 (ssRNA)
RNA: B1 RNA with C27A, U28A
B16: Ib_S4_P5E.1_K5.1_C5.1_H5.1_[A4C]_A5.1_[T5G]_F5.1_T5.1 (ssRNA)
RNA: B1 RNA with C26U, U28G
B17: Ib_S4_P5E.1_K5.1_C5.1_H5.1_[A4C]_A5.1_[T5C]_F5.1_T5.1 (ssRNA)
RNA: B1 RNA with C26U, U28C
B18: Ib_S4_P5E.1_K5.1_C5.1_H5.1_[T1C]_A5.1_[T6A]_F5.1_T5.1 (ssRNA)
RNA: B1 RNA with U24C, C26U, C27A, U29A
B19: Ib_S4_P5E.1_K5.1_C5.1_H5.1_[G2A]_A5.1_[A7G]_F5.1_T5.1 (ssRNA)
RNA: B1 RNA with G25A, C26U, C27A, A30G
B20: Ib_S4_P5E.1_K5.1_C5.1_H5.1_[T3C]_A5.1_[A7G]_F5.1_T5.1 (ssRNA)
RNA: B1 RNA with C27A, A30G
B21: Ib_S4_P5E.1_K5.1_C5.1_H5.1_[G2T]_A5.1_[T5C]_F5.1_T5.1 (ssRNA)
RNA: B1 RNA with G25U, C26U, C27A, U28C
B22: Ib_S4_P5E.1_K5.1_C5.1_H5.1_A5.1_[T6A]_[A7C]_F5.1_T5.1 (ssRNA)
RNA: B1 RNA with C26U, C27A, U29A, A30C
B23: Ib_S4_P5E.1_K5.1_C5.1_H5.1_[T1C]_A5.1_[T5G]_F5.1_T5.1 (ssRNA)
RNA: B1 RNA with U24C, C26U, C27A, U28G
B24: Ia_S4_P5E.1_K5.1_C5.1_H5.1_A5.1_F5.1_[T8A]_T5.1 (ssRNA)
RNA: B1 RNA with C26U, C27A, U31A
B25: Ib_S4_P5E.1_K5.1_C5.1_H5.1_[T3C]_A5.1_[A7C]_F5.1_T5.1 (ssRNA)
RNA: B1 RNA with C27A, A30C
B26: Ib_S4_P5E.1_K5.1_C5.1_H5.1_[G2C]_A5.1_[T6A]_F5.1_T5.1 (ssRNA)
RNA: B1 RNA with G25C, C26U, C27A, U29A
B27: Ib_S4_P5E.1_K5.1_C5.1_H5.1_[G2C]_A5.1_[T5A]_F5.1_T5.1 (ssRNA)
RNA: B1 RNA with G25C, C26U, C27A, U28A
B28: Ib_S4_P5E.1_K5.1_C5.1_H5.1_[T1C]_A5.1_[A7T]_F5.1_T5.1 (ssRNA)
RNA: B1 RNA with U24C, C26U, C27A, A30U
B29: Ib_S4_P5E.1_K5.1_C5.1_H5.1_A5.1_[T6A]_[A7G]_F5.1_T5.1 (ssRNA)
RNA: B1 RNA with C26U, C27A, U29A, A30G
B30: Ib_S4_P5E.1_K5.1_C5.1_H5.1_[T3C]_A5.1_[T5C]_F5.1_T5.1 (ssRNA)
RNA: B1 RNA with C27A, U28C
B31: Ib_S4_P5E.1_K5.1_C5.1_H5.1_[T3C]_A5.1_[A7T]_F5.1_T5.1 (ssRNA)
RNA: B1 RNA with C27A, A30U
B32: Ib_S4_P5E.1_K5.1_C5.1_H5.1_A5.1_[T5C]_[T6C]_F5.1_T5.1 (ssRNA)
RNA: B1 RNA with C26U, C27A, U28C, U29C
B33: Ib_S4_P5E.1_K5.1_C5.1_H5.1_A5.1_[T6C]_[A7C]_F5.1_T5.1 (ssRNA)
RNA: B1 RNA with C26U, C27A, U29C, A30C
B34: Ib_S4_P5E.1_K5.1_C5.1_H5.1_[G2A]_A5.1_[T6A]_F5.1_T5.1 (ssRNA)
RNA: B1 RNA with G25A, C26U, C27A, U29A
B35: Ib_S4_P5E.1_K5.1_C5.1_H5.1_A5.1_[T5C]_[A7T]_F5.1_T5.1 (ssRNA)
RNA: B1 RNA with C26U, C27A, U28C, A30U
B36: Ib_S4_P5E.1_K5.1_C5.1_H5.1_A5.1_[T5A]_[A7G]_F5.1_T5.1 (ssRNA)
RNA: B1 RNA with C26U, C27A, U28A, A30G
B37: Ib_S4_P5E.1_K5.1_C5.1_H5.1_[A4T]_A5.1_[T6A]_F5.1_T5.1 (ssRNA)
RNA: B1 RNA with C26U, C27U, U29A
B38: Ib_S4_P5E.1_K5.1_C5.1_H5.1_[G2C]_A5.1_[T6C]_F5.1_T5.1 (ssRNA)
RNA: B1 RNA with G25C, C26U, C27A, U29C
B39: Ie_S4_P4E.1_K4.1_C4.1_H4.1_[+3T]_A4.1_F4.1_T4.1 (ssRNA)
RNA: B1 RNA with C26U, C27U, U28A
B40: Ia_S4_P4E.1_K4.1_C4.1_H4.1_A4.1_[A6T]_F4.1_T4.1 (ssRNA)
RNA: UUUGACAACUGAUCGUUCUUUCUUGUAUUUUAUUCUUUCUCGAUCAGUUGUCUUU
B41: Ic_S4_P4E.1_K4.1_C4.1_H4.1_A4.1_[T7G]_F4.1_T4.1 (ssRNA)
RNA: B40 RNA with U29A, U30G
B42: Ia_S4_P4E.1_K4.1_C4.1_H4.1_A4.1_[T7C]_F4.1_T4.1 (ssRNA)
RNA: B40 RNA with U29A, U30C
B43: Ia_S4_P4E.1_K4.1_C4.1_H4.1_A4.1_[T7A]_F4.1_T4.1 (ssRNA)
RNA: B40 RNA with U29A, U30A

The target of the data set is T1, PUF4 RNA-binding domain. Kind of data set: Mg; RNA-MaP; 20 mM Na-HEPES pH 7.4, 30 mM KOAc, 0.75 mM MgCl2, 0.1% Tween-20, 5% glycerol, 0.1 mg/mL BSA, 2 mM DTT; 25 C; 0.0125-409.6 nM protein. The note with it: tags: N-His6-TEV cleaved; C-SNAP kept, Cy3B-labelled; label: tethered on chip by stalled RNA polymerase.
With UCUCUUUGUAGCUUUCUCUU (ssRNA) [Ic_S1_P3E.1_K3.1_C3.1_H3.1_A3.1_[T5G]_[A6C]_F3.1_[A8T]_T3.1], the Kd was 296 nM.

As to UCUCUUUGUAGCGUUCUCUU (ssRNA) [Ic_S1_P3E.1_K3.1_C3.1_H3.1_A3.1_[T5G]_[A6C]_F3.1_[T7G]_[A8T]_T3.1], the Kd came to 1510 nM. Then UCUCUUUGUAGCUGUCUCUU (ssRNA) [Ic_S1_P3E.1_K3.1_C3.1_H3.1_A3.1_[T5G]_[A6C]_F3.1_[A8G]_T3.1], with 864 nM; and UCUCUUUGUAGCAGUCUCUU (ssRNA) [Ic_S1_P3E.1_K3.1_C3.1_H3.1_A3.1_[T5G]_[A6C]_F3.1_[T7A]_[A8G]_T3.1], with 1740 nM.

Molecule B1 registered an equilibrium dissociation constant (Kd) of 862 nM. As for B2, the figure is 637 nM. As for B3, the figure is 453 nM; as for B4, 5.86 nM. As for B5, the figure is 12.5 nM; as for B6, 5.23 nM. For the molecule B7, binding was characterised by a dissociation constant (Kd) of 1940 nM.

In the case of B8, binding was put at a Kd of 2200 nM. As for B9, the figure is 3.97 nM.

With B10, binding was put at a Kd of 112 nM. Then B11, with > 2300 nM; and B12, with > 2300 nM; and B13, with > 2300 nM. As for B14, the figure is 83.8 nM. B15 returned a Kd of 872 nM. This Kd is about 10-fold higher than that of the molecule before.

As for B16, the Kd stood at 34.4 nM. As to B17, the Kd stood at 19.9 nM. Then B18, with 1040 nM.

In turn, B19 had a Kd of 904 nM. This Kd and that of the molecule before are within 1.5-fold of each other. Then B20, with 1520 nM.

B21: the Kd was > 2300 nM. As for B22, the figure is 2.42 nM; as for B23, > 2300 nM. Then B24, with 6.15 nM; and B25, with 1630 nM. As for B26, the figure is > 2300 nM; as for B27, > 2300 nM. As to B28, binding was put at a Kd of 370 nM. B29 registered a dissociation constant Kd of 10.7 nM. Compared with the last molecule, the Kd is about 35-fold lower. As for B30, the figure is 204 nM; as for B31, 414 nM; as for B32, 1.7 nM. The molecule B33 came in with a Kd of 4.55 nM.

B34 came in with a dissociation constant (Kd) of 696 nM.

Take B35: the Kd was 1.71 nM.

Molecule B36 returned a Kd of 15.3 nM. Take B37: the Kd amounted to 16 nM.

In turn, B38 yielded a Kd of 1940 nM. This Kd is about 120-fold higher than that of the molecule before. In the case of B39, the Kd turned out to be 5.86 nM.

Turning to UCUCUUUGUUUAUAUCUCUU (ssRNA) [Ia_S1_P3E.1_K3.1_C3.1_H3.1_[A4T]_A3.1_F3.1_T3.1], the Kd came to 478 nM. Then UCUCUUUGUAGCCGUCUCUU (ssRNA) [Ic_S1_P3E.1_K3.1_C3.1_H3.1_A3.1_[T5G]_[A6C]_F3.1_[T7C]_[A8G]_T3.1], with > 2300 nM.

For the molecule UCUCUUUGUAGCCAUCUCUU (ssRNA) [Ic_S1_P3E.1_K3.1_C3.1_H3.1_A3.1_[T5G]_[A6C]_F3.1_[T7C]_T3.1], the dissociation constant (Kd) is 1850 nM. Then B40, with 1.24 nM. Then B41, with 1.66 nM; and B42, with 0.515 nM; and B43, with 1.23 nM. As for UCUCUUUGUAGCUCUCUCUU (ssRNA) [Ic_S1_P3E.1_K3.1_C3.1_H3.1_A3.1_[T5G]_[A6C]_F3.1_[A8C]_T3.1], the figure is > 2300 nM; as for UCUCUUUGUAGCAUUCUCUU (ssRNA) [Ic_S1_P3E.1_K3.1_C3.1_H3.1_A3.1_[T5G]_[A6C]_F3.1_[T7A]_[A8T]_T3.1], 42.4 nM. As to UCUCUUUGUAGCAAUCUCUU (ssRNA) [Ic_S1_P3E.1_K3.1_C3.1_H3.1_A3.1_[T5G]_[A6C]_F3.1_[T7A]_T3.1], the Kd came to 1060 nM. Compared with the last molecule, the Kd is about 25-fold higher.
